The results in this text go back to patent publication US20060287503, “Retinoid X receptor-interacting polypeptides and related molecules and methods” (published 2006).

The target of series [1] is T1, RIP14-1/RXRalpha heterodimer (Mus musculus / Homo sapiens, UniProt Q60641-2;P19793 Q60641-2:1-484,P19793:1-462). Put plainly: EMSA; competition with 50-fold unlabeled betaRARE (specific) and AP1 (nonspecific) tested. Particulars: tags: human RXRalpha expressed in E. coli; label: 32P end label. How it is done:
(§1) In panel A, RIP14-1 without (lane 2) or with RXR (lanes 3-5) was incubated with the hsp27 promoter (EcRE) end-labeled with [³²P]ATP. In panel B, RIP15 (lanes 2-5) and RIP14-1 (lanes 9-12) without (lanes 2 and 9) or with (lanes 3-5 and 10-12) RXR were incubated with βRARE end-labeled with [³²P]ATP. In both cases, a 50-fold molar excess of unlabeled specific (sp; EcRE, lane A4 and βRARE, lanes B4 and B11) or nonspecific (ns; AP1, lanes A5, B5, and B12) oligomers were added with the labeled probe. Incubations with probe alone are shown in lanes A1, B1, and B8. Cell lysates used for in vitro translation were also incubated with the probes without (lanes A6 and B6) or with (lanes A7 and B7) RXR. RIP14-2 and the RIP14-1 chimeras containing a four amino acid insertion in the D domain (RIP14C) were also incubated with βRARE and RXR as shown in lanes B13 and B14, respectively. Specific bands are indicated by arrows.
(§2) To identify DNA sequences recognized by each orphan, in vitro translated proteins were used for gel shift assays. Because of their strong sequence similarity to the ecdysone receptor, a well studied ecdysone response element (EcRE) from the Drosophila hsp27 promoter (Riddilough et al., EMBO J. 6:3729-3734, 1987) was tested for binding to both orphans, in the presence and absence of RXR. […]

Series [2] deals with RIP15/RXRalpha heterodimer (Mus musculus / Homo sapiens, UniProt Q60644;P19793 Q60644:1-446,P19793:1-462). In words: EMSA; with RXR. As to conditions: tags: human RXRalpha expressed in E. coli; label: 32P end label. How it is done:
(§3) The binding of the RIP14-2 isoform to this element was weaker than that of RIP14-1 when similar amounts of RIP14 proteins were used. […] Several other DNA elements were tested in the gel shift assay, including the retinoic acid response element from the promoter of the human RARβ2 isoform (βRARE) (de The et al., Nature 343:177-180, 1990). In the presence of RXR, the βRARE was bound by both the RIP14 isoforms and RIP15 (FIG. 8, panel B). Again, the binding of the RIP14-2/RXR heterodimer was weaker than the RIP14-1/RXR heterodimer when a similar amount of RIP14 proteins were used (FIG. 8, panel B, lanes 10 and 14).
(§4) RIP14 and RIP15 proteins were produced by in vitro translation (Promega TNT, Madison, Wis.) using expression vectors containing the RIP genes following a T7 promoter. To generate full length RIP14-2 constructs, fragments from RIP14-1 clone No. 15 containing regions from the middle of the E domain to the 3′ end replaced the corresponding regions of RIP14-2 Clones No. 3 or 12, respectively. Sequences were confirmed by DNA sequencing. Human RXRα protein was expressed in E. coli using a bacterial expression vector based on the bacteriophage T7 promoter (Carter et al., Mol. Cell. Biol. in press., 1994). […]

The target of series [3] is T1, RIP14-1/RXRalpha heterodimer. Put plainly: EMSA; competition with 50-fold unlabeled EcRE (specific) and AP1 (nonspecific) tested; 40 mM KCl, 2.5 mM MgCl2, pH 8.0, room temp. As to conditions: tags: human RXRalpha expressed in E. coli; label: 32P end label. How it is done: as §1, §2
The next series has as its target T2, RIP15 (Mus musculus, UniProt Q60644 SEQ:1-446).
T2 chain: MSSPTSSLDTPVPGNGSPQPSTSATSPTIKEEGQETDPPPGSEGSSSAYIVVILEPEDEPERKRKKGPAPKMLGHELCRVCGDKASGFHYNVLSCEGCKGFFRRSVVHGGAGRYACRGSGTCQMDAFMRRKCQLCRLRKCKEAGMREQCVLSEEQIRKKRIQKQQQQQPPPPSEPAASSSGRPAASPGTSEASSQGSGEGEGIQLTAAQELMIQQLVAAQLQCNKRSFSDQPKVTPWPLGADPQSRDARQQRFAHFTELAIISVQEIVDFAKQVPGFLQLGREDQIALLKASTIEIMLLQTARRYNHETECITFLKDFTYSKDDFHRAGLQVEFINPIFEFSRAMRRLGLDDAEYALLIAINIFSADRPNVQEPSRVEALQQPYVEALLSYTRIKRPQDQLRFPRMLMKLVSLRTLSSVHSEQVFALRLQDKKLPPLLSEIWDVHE
In words: EMSA; without RXR. As to conditions: label: 32P end label. Here is the method:
as §3, §4

T1 sequence (Q60641 other isoform, or with tags, fused parts or gaps, chain 1 of 2): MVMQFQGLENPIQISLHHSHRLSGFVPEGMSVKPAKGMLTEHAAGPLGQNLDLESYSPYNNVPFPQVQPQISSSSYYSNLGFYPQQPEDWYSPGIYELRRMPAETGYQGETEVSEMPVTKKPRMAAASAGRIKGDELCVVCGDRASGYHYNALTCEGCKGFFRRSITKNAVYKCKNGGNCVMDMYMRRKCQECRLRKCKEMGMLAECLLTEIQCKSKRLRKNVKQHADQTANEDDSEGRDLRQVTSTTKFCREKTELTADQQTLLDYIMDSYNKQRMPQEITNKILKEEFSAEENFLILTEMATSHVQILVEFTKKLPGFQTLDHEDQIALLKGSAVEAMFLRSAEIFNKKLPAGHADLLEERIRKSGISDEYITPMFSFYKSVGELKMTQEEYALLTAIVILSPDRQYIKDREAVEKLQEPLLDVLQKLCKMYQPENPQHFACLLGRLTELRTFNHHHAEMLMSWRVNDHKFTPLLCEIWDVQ
T1 sequence (P19793 whole entry, chain 2 of 2): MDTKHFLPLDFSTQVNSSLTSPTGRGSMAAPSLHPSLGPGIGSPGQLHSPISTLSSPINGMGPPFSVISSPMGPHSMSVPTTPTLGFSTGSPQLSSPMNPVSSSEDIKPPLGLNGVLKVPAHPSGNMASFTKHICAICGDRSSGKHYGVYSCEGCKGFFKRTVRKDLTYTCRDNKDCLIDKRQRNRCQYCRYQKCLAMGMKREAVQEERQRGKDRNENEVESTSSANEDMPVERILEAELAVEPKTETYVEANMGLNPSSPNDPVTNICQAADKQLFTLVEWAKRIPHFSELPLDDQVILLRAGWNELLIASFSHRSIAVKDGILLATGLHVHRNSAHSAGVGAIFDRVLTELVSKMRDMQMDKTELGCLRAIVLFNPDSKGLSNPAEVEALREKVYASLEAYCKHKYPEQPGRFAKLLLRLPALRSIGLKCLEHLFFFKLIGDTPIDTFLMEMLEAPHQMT
RIP15/RXRalpha heterodimer, sequence (P19793 whole entry, canonical isoform, one chain of several): as the sequence (P19793 whole entry, chain 2 of 2) above

B1: betaRARE (dsDNA)
DNA 1: GATCCGGGTAGGGTTCACCGAAAGTTCACTCGA
DNA 2: TCGAGTGAACTTTCGGTGAACCCTACCCGGATC
For the molecule B1, the binding result in series [1] is given as “binds”.

B2: hsp27 EcRE (dsDNA)
DNA 1: CTAGACAAGGGTTCAATGCACTTGTCCATCG
DNA 2: CGATGGACAAGTGCATTGAACCCTTGTCTAG
As to B2, the binding result in series [2] is reported as “no binding”; in series [3], “binds”; in the series with RIP15 it was “no binding”.
